The values below come from patent publication US20170137467A1 (CHROMOTEK, published 2017).

Changes are numbered by the printed parent chain. Square brackets hold non-standard residues; d marks the D form. GABA = NCCCC(=O)O

Assay [1] addresses T1, BC2T D2S (human).
T1 construct: position 2 library, row S
T1 peptide: Ac-PSRKAAVSHWQQ-NH2
Kind of assay: library pulldown, LC-MS of supernatant; ratio vs GFP-Nb control (0=captured, 1=not captured). The source says:
(§1) In total, 12 different BC2T libraries displaying all 20 proteinogenic amino acids in one single position of the peptide were used in immunoprecipitation experiments. […] The direct comparison with the GFP-Nb made it possible to determine the quantitative degree of peptide capture without the need of labeled standards. […] The more peptide was captured the more the value approximates 0. It was not possible to discriminate between isoleucine (I) and leucine (L) peptide versions since these peptides are isobaric.
(§2) To investigate the binding specificity of the BC2T and derived mutants peptide libraries for each amino acid position of the sequence […] (SEQ ID NO:4) were synthesized with acetyl and amide groups located at the N-termini or C-termini respectively (Intavis). […] Incubations were performed in 300 μl PBS/0.01% CHAPS for 1 h on a HulaMixer (Life Technologies). Subsequent to a centrifugation step 10 μl supernatant were analyzed in a LC-MS procedure. Peptides were separated using an UltiMate3000 RSLCnano System (Thermo Scientific), composed of a C18 PepMap100μ-Precolumn (300 μm×5 mm; particle size: 5 μm; pore size: 100 Å—Thermo Scientific) and a C18 analytical column (Acclaim Rapid Separation LC (RSLC) Column: 150 mm×5 mm; particle size: 2.2 μm; pore size: 100 Å—Thermo Scientific). A step gradient was applied starting at 8% and ending after 20 min at 30% eluent B (80% acetonitrile, 20% H₂O, 0.1% formic acid).

Assay [2] deals with T2, BC2T R3T (human).
T2 construct: position 3 library (BC2TR3X), row T
T2 peptide: Ac-PDTKAAVSHWQQ-NH2
The description is as above.
Excerpt: as §1, §2

For assay [3], the target named is T3, BC2T D2T (human).
T3 construct: position 2 library, row T
T3 peptide: Ac-PTRKAAVSHWQQ-NH2
The assay is described as above.
Excerpt: as §1, §2

Assay [4] addresses T4, BC2T R3N (human).
T4 construct: position 3 library (BC2TR3X), row N
T4 peptide: Ac-PDNKAAVSHWQQ-NH2
The description is as above.
Excerpt: as §1, §2

Assay [5] addresses T5, BC2T P1Q (human).
T5 construct: position 1 library, row Q
T5 peptide: Ac-QDRKAAVSHWQQ-NH2
Described as above.
Excerpt: as §1, §2

Assay [6] concerns the target T6, BC2T P1S (human).
T6 construct: position 1 library, row S
T6 peptide: Ac-SDRKAAVSHWQQ-NH2
Described as above.
Excerpt: as §1, §2

Assay [7] deals with T7, BC2T D2H (human).
T7 construct: position 2 library, row H
T7 peptide: Ac-PHRKAAVSHWQQ-NH2
The description is as above.
Excerpt: as §1, §2

The target of assay [8] is T8, BC2T H9V.
T8 construct: positional scanning library member
T8 peptide: Ac-PDRKAAVSVWQQ-NH2
Kind of assay: positional peptide library pulldown on immobilised Nb, LC-MS of supernatant; signal ratio to control GFP-Nb (1 = not captured, near 0 = captured). The gist of the method:
(§3)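 Unbound peptide left in supernatant after 1 h pulldown in PBS/0.01% CHAPS measured by reversed-phase LC-MS (8–30% eluent B gradient, 20 min).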

Assay [9] has as its target T9, BC2T Q12W.
T9 construct: positional scanning library member
T9 peptide: Ac-PDRKAAVSHWQW-NH2
The description is as above. In outline: as §3

Assay [10] has as its target T10, BC2T Q12P.
T10 construct: positional scanning library member
T10 peptide: Ac-PDRKAAVSHWQP-NH2
Described as above. The gist of the method:
as §3

Assay [11] addresses T11, BC2T Q12F.
T11 construct: positional scanning library member
T11 peptide: Ac-PDRKAAVSHWQF-NH2
The description is as above. In outline: as §3

Assay [12] has as its target T12, BC2T H9M.
T12 construct: positional scanning library member
T12 peptide: Ac-PDRKAAVSMWQQ-NH2
The assay is described as above. The gist of the method: as §3

In assay [13] the target is T13, BC2T S8Y.
T13 construct: positional scanning library member
T13 peptide: Ac-PDRKAAVYHWQQ-NH2
The assay is described as above. In outline:
as §3

Assay [14] concerns the target T14, BC2T Q11R.
T14 construct: positional scanning library member
T14 peptide: Ac-PDRKAAVSHWRQ-NH2
Described as above. In outline:
as §3

Assay [15] has as its target T15, BC2T W10(I/L2) (N-terminal acetyl; C-terminal amide).
T15 construct: positional scanning library member; I or L not resolved
The assay is described as above. The gist of the method: as §3

In assay [16] the target is T16, BC2T W10V.
T16 construct: positional scanning library member
T16 peptide: Ac-PDRKAAVSHVQQ-NH2
The assay is described as above. The gist of the method:
as §3

In assay [17] the target is T17, BC2T S8T.
T17 construct: positional scanning library member
T17 peptide: Ac-PDRKAAVTHWQQ-NH2
The assay is described as above. The gist of the method:
as §3

The target of assay [18] is T18, BC2T Q11Y.
T18 construct: positional scanning library member
T18 peptide: Ac-PDRKAAVSHWYQ-NH2
The assay is described as above. The gist of the method:
as §3

In assay [19] the target is T19, BC2T Q12M.
T19 construct: positional scanning library member
T19 peptide: Ac-PDRKAAVSHWQM-NH2
The assay is described as above. The gist of the method:
as §3

The target of assay [20] is T20, BC2T W10K.
T20 construct: positional scanning library member
T20 peptide: Ac-PDRKAAVSHKQQ-NH2
The assay is described as above. In outline: as §3

Assay [21] addresses T21, BC2T S8C(Abu) (also: Abu described as gamma-amino butyric acid).
T21 construct: positional scanning library member
T21 peptide: Ac-PDRKAAV[GABA]HWQQ-NH2
The description is as above. In outline:
as §3

B1: BC2 nanobody (BC2-Nb) (VHH)
VHH: QVQLVESGGGLVQPGGSLTLSCTASGFTLDHYDIGWFRQAPGKEREGVSCINNSDDDTYYADSVKGRFTIFMDNAKDTVYLQMNSLKPEDTAIYYCAEARGCKRGRYEYDFWGQGTQVTVSS
notes: immobilised on agarose/sepharose beads in this assay; also called BC2 nanotrap (immobilised form); not shown: C-terminal 6xHis-tag added by pHEN6 vector
For B1, the ratio in [1] stood at 0.1; in assay [2], 0.3; in assay [3], 0.1; in assay [4], 0.7; in assay [5] it was 0.6; in assay [6], 0.3. Also, in [7], the ratio is 0.1.

B2: BC2 nanobody (VHH)
VHH: B1 VHH
notes: immobilised on beads in this assay; also called BC2-Nb; BC2 nanotrap (immobilised)
Take B2: the ratio in assay [8] was 0.2; in [9], 0.1; in assay [10], 0.1; in [11], 0.2; in [12], 0.1; in [13], 0.6. Besides, the ratio was 0 in assay [14]; 1 in assay [15]; 1 in assay [16]; 0.1 in assay [17]; 0 in assay [18]; 0.1 in assay [19]. The ratio turned out to be 1 in assay [20] and 0 in assay [21].

B3: BC2-NbR106S (VHH)
VHH: B1 VHH with R106S
notes: headlock mutant of BC2-Nb; immobilised on beads in this assay
With B3, the ratio in assay [8] is 0.6; in assay [9], 0.3; in assay [10] it was 0.2; in assay [11] it was 0.4; in assay [12], 0.3; in [13] it was 0.9. Also, the ratio stood at 0.1 in [14]; 1.1 in [15]; 1 in assay [16]; 0.2 in [17]; 0.1 in assay [18]; 0.3 in assay [19]. Moreover, the ratio in [20] was found to be 1.1; in [21], 0.1.

B4: BC2-NbR106S (VHH)
VHH: B1 VHH with R106S
notes: immobilised on beads in this assay; not shown: C-terminal 6xHis-tag added by pHEN6 vector
For the molecule B4, the ratio stood at 0.3 in [1]; 0.8 in [2]; 0.2 in assay [3]; 1 in assay [4]; 0.7 in assay [5]; 0.6 in assay [6]. Also, the ratio in assay [7] was 0.2.
